The values that follow come from publication PMC6762210, “The monothiol glutaredoxin GrxD is essential for sensing iron starvation in Aspergillus fumigatus” (PLoS Genetics, 2019).

B1: HapX^161-491 (A. fumigatus HapX C-terminus with all four cysteine-rich regions) (domain or fragment, UniProt Q4WER3 161-491, looked up)
chain: KGLAPLTTSTPQARSSDRPDNGDASNNDSGEGREEVPLGCNDCSTSHCQCIEDAFTMPGVVAQEQSRRLDTTKPGLSEPQIKPDPEEMEIDFTSRFAATQQQDQSPTSVSSPAVDPCGFCSDGTPCICAEMAAQEEQRPRRNSFENNRLAPIQNLSQFTPPPSDGDVRSDVTLPPISQATNPCANGPGTCAQCLADPRRTLFCKTLAASRSPSAAPSGCCGGKGADGGCCQSRNTNVSRGRSGSNNNTSSGSSAAPSLTLSCADAYTTLSRHPNFSRATDELSTWLPKLHTLPKPRDFPLTDRGVPRAALEVEAASVMGVLRYFDRRFADK
notes: HapX of Aspergillus fumigatus (Afu5g03920), amino acids 161-491 (cysteine-rich C-terminus), from a synthetic gene; also called AfuHapX^161-491; pnCS-HapX161-491; source: E. coli BL21(DE3), untagged, bicistronically co-expressed with GrxD-His6; in crude cell extract, then co-purified (Ni-Sepharose, SEC)

Experiment [1] has as its target T1, GrxD (recombinant full-length GrxD after removal of the His-tag by TEV protease) (A. fumigatus, UniProt Q4X024 1-271).
T1 construct: GrxD of Aspergillus fumigatus (Afu2g14960), full length, from a synthetic gene; Residues of the TEV site may be left at the C-terminus after cleavage (surmise); source: E. coli BL21(DE3), co-expressed with HapX^161-491, purified (Ni-Sepharose, TEV protease, Superdex 200 SEC); not shown: His6, C-terminal, cleaved
T1 sequence (looked up): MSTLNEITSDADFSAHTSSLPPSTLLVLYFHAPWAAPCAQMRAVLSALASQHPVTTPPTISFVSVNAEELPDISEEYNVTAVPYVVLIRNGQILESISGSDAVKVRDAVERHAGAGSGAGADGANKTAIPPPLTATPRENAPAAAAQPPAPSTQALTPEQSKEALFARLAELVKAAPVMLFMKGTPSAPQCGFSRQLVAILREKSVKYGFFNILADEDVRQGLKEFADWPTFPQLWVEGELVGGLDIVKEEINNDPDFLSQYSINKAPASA
Description: SEC; Ni-chelate eluate digested with TEV protease and loaded on Superdex 200 prep grade 26/60 in 25 mM HEPES pH 7.5, 150 mM NaCl, 2 mM glutathione; apparent masses from protein calibration standards; fractions checked by SDS-PAGE. To be noted: both partners purified. Background: Size exclusion chromatography separates by hydrodynamic size, large species first.

For experiment [2], the target named is B1. Described as above. To be noted: both partners purified.

On to B1, for which, in experiment [1], the “stoichiometry N” value is ~1 HapX^161-491 per GrxD (2:2).

B2: GrxD^C191A (recombinant GrxD with cysteine 191 mutated to alanine) (natural protein)
chain: MSTLNEITSDADFSAHTSSLPPSTLLVLYFHAPWAAPCAQMRAVLSALASQHPVTTPPTISFVSVNAEELPDISEEYNVTAVPYVVLIRNGQILESISGSDAVKVRDAVERHAGAGSGAGADGANKTAIPPPLTATPRENAPAAAAQPPAPSTQALTPEQSKEALFARLAELVKAAPVMLFMKGTPSAPQAGFSRQLVAILREKSVKYGFFNILADEDVRQGLKEFADWPTFPQLWVEGELVGGLDIVKEEINNDPDFLSQYSINKAPASA
notes: GrxD of Aspergillus fumigatus (Afu2g14960), full length, C191 of the CGFS motif mutated to A; source: E. coli BL21(DE3), co-produced with HapX^161-491, purified (Ni-chelate, TEV protease, SEC); not shown: His6, C-terminal, cleaved
As for B2, the binding result in experiment [2] is listed as “binds”.

For orientation: stoichiometry N means the number of molecules, sites or subunits per partner or assembly.
